# From article PMC3823998, “Structural and Functional Characterization of the Redβ Recombinase from Bacteriophage λ” (PLoS ONE, 2013)
# T1: Redβ Y64A (Bacteriophage λ (Enterobacteria phage λ), UniProt P03698 1-261, Y64A)
# T1 sequence: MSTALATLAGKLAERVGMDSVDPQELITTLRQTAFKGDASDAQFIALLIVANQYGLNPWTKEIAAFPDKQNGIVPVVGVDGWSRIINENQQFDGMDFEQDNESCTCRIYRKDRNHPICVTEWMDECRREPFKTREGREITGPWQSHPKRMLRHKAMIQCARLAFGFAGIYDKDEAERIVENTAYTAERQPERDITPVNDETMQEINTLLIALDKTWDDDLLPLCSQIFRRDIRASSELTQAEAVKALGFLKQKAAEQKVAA
# T2: Redβ R149A (Bacteriophage λ (Enterobacteria phage λ), UniProt P03698 1-261, R149A)
# T2 sequence: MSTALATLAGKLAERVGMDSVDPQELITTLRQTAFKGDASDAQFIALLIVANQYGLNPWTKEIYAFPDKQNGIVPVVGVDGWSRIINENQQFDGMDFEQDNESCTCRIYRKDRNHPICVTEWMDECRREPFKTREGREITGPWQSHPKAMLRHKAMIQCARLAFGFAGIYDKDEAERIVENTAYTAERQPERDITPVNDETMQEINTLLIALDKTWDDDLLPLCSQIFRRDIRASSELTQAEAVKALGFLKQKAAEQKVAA
# T3: Redβ D80A (Bacteriophage λ (Enterobacteria phage λ), UniProt P03698 1-261, D80A)
# T3 sequence: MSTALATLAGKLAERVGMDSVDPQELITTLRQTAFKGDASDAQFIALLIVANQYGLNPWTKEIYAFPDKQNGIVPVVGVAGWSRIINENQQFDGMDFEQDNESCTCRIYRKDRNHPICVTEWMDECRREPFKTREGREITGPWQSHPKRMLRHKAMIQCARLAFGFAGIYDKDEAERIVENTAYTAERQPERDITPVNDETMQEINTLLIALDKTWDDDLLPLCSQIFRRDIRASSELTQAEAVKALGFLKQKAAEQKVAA
# T4: Redβ V77A (Bacteriophage λ (Enterobacteria phage λ), UniProt P03698 1-261, V77A)
# T4 sequence: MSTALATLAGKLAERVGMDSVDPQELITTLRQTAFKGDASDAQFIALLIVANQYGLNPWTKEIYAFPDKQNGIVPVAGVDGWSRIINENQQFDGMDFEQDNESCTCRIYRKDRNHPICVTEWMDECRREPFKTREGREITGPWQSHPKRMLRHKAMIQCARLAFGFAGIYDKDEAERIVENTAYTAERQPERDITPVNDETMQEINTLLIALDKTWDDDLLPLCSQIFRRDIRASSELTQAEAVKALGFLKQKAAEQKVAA
# T5: Redβ K132A (Bacteriophage λ (Enterobacteria phage λ), UniProt P03698 1-261, K132A)
# T5 sequence: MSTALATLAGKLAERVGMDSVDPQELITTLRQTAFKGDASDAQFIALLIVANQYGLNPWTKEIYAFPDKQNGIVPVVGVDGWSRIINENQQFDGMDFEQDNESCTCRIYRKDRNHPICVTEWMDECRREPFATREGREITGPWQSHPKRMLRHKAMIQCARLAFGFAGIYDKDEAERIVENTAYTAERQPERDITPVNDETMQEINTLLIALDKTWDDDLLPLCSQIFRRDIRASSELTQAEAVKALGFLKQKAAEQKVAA
# T6: Redβ V79A (Bacteriophage λ (Enterobacteria phage λ), UniProt P03698 1-261, V79A)
# T6 sequence: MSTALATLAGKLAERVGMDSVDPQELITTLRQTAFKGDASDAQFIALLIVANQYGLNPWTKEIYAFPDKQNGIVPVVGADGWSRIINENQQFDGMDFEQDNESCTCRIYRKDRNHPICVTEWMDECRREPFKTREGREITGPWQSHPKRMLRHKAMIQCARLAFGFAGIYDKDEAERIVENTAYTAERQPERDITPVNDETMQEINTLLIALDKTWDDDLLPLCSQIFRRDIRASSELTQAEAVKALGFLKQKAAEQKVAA
# Assays:
# Test in all cases: EMSA; glutaraldehyde-fixed; ssDNA EMSA: 10 nM DNA, 50 mM potassium phosphate pH 6.0, 5 mM EDTA, 5% glycerol, 0.1 mg/ml BSA, 37°C, 40 min, then 0.1% glutaraldehyde; second-strand EMSA: 5 nM each strand, 20 mM Tris-HCl pH 7.5, 5 mM MgCl2, 1 mM DTT, 0.1 mg/ml BSA, 37°C
# Conditions in all cases: protein: recombinant; tags: His6 removed; N-terminal GSH left; label: 5' Cy3
# [1] = molecular target: T1, Redβ Y64A
# [2] = molecular target: T2, Redβ R149A
# [3] = molecular target: T3, Redβ D80A
# [4] = molecular target: T4, Redβ V77A
# [5] = molecular target: T5, Redβ K132A
# [6] = molecular target: T6, Redβ V79A
binder,measurement,setting,value
TGCGGATGGCTTAGAGCTTAATTGCTGAATCTGGTGCTGTAGCTCAACAT (ssDNA) [50-minus ssDNA],binding signal,[1],98 % of WT binding at 3 µM protein
same,binding signal,[2],44 % of WT binding at 3 µM protein
same,binding signal,[3],87 % of WT binding at 3 µM protein
same,binding signal,[4],11 % of WT binding at 3 µM protein
same,binding signal,[5],82 % of WT binding at 3 µM protein
same,binding signal,[6],21 % of WT binding at 3 µM protein
